Results on 11 molecules are retold here after patent publication US20240252641A1 (TCR2 THERAPEUTICS, published 2024).

As usually defined, the Kd is the free concentration of one partner at which half of the binding sites on the other are occupied at equilibrium, for simple one-to-one binding.

In test [1] the target is T1, human CD70, recombinant, N-terminally biotinylated (residues 39-193) (human, UniProt P32970 39-193, N-terminal biotin).
T1 construct: range 39-193; the same entry is used there; also called biotinylated human CD70; CD70 biotin
T1 sequence (looked up): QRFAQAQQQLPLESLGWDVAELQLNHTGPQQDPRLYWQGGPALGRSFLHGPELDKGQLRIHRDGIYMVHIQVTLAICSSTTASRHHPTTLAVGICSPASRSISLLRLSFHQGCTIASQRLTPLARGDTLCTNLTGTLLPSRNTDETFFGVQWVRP
As to the kind of experiment: SPR. The procedure, abridged: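 Human scFv antibodies came from panning a naïve human library against the CD70 extracellular domain (aa39-193). Their affinity (Kd) for recombinant, N-terminally biotinylated human CD70 was measured by surface plasmon resonance (SPR) analysis.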
In general terms: SPR reads the build-up and loss of mass on a sensor chip optically.

Test [2] concerns the target T2, CD70 on cells (CHO-CD70, JVM-3, U266, Raji, THP-1, T cells) (human, UniProt P32970 1-193).
T2 construct: whole, on cells; also called cell-surface CD70
T2 sequence (looked up): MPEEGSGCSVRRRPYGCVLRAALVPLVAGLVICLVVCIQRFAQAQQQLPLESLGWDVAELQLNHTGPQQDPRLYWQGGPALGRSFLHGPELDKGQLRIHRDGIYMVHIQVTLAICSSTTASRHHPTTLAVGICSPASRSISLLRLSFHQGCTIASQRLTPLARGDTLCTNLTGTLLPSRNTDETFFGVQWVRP
The test is described as follows: 1.25 µg/mL scFv on U266 cells. The procedure, abridged:
(§1)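 Panning of a naïve human library against the CD70 extracellular domain (aa39-193) yielded human scFv antibodies. Binding to high-CD70 (CHO-CD70, JVM3, U266) and low-CD70 (CHO WT, K562) tumour cell lines was recorded line by line.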

In test [3] the target is T2, CD70 on cells (CHO-CD70, JVM-3, U266, …). The test is described as follows: 1.25 µg/mL scFv on JVM-3 cells. The gist of the method:
as §1

Test [4] shares this target. The test is described as follows: 1.25 µg/mL scFv on CHO-CD70 cells. The gist of the method:
as §1

Test [5] deals with T1, human CD70, recombinant, N-terminally …. The test is described as follows: CD27 blocking ELISA, 3 µM scFv, strep/HRP. For orientation: ELISA stands for enzyme-linked immunosorbent assay.
Test [6] shares this target. The test is described as follows: CD27 blocking ELISA, 3 µM scFv, anti-His/HRP. How it is done:
Human scFv antibodies binding CD70 were generated by panning a naïve human library with the extracellular domain (aa39-193) of CD70. 53 antibodies were identified. The ability of CD27 to block CD70 binding of the identified antibodies was measured by ELISA using two different assays. In the first assay, CD27 and his-tagged scFv anti-CD70 binders were simultaneously added to surface bound CD70, and the ability of the scFv binders to bind CD70 was detected with anti-His HRP. In the second assay, plate-bound CD70 was pre-incubated with CD27 for 30 minutes, and then additional CD27 and the his-tagged scFv anti-CD70 binder was added. The ability of the scFv binders to bind CD70 was detected with anti-His HRP. FIG. 34 is a schematic of the two different CD27 blocking assays. CD70 affinity was also measured by SPR analysis. scFv antibodies were also tested for their ability to bind tumor cell lines with high (CHO-CD70, JVM3, and U266) and low levels (CHO WT and K562 of CD70 expression. Results for 39 antibodies are shown in Table 1 below.

B1: 32-TC1.2-I-F07-6 (scFv)
scFv: QVQLVQSGAEVKKPGESLKISCKGSGYSFTSYWIGWVRQMPGKGLEWMGIIYPGESDTRYSPSFQGQVTISADKSISTAYLQWSSLKASDTAMYYCARRNYYDRSGYVDAFDIWGQGTMVTVSSGGSGGSGGSGGSSSELTQDPAVSVALGQTVRITCQGDSLRRFYASWHQQKPGQAPIVVMYAENNRPSGIPDRFSGSSSGNTASLTITGAQAEDEATYYCNSRDSSGNRHVFGTGTKLTVL
notes: His-tagged
Take B1: in test [1], the Kd is 7.41 nM. The cell binding in test [2] was determined as 20700; in test [3] it was 57300; in test [4], 553000. Also, in test [5], the strep/HRP was 0.113. The “anti His/HRP” value in test [6] amounted to 2.42.

B2: 13-TC7-V-H10 (scFv)
scFv: QVQLQQWGAGLLKPSETLSLTCAVYGGSFSGYYWSWIRQPPGKGLEWIGEINHSGSTNYNPSLKSRVTISVDTSKNQFSLKLSSVTAADTAVYYCARSRRPYWYFDLWGRGTLVTVSSGGSGGSGGSGGSQSALTQPASVSGSPGQSITISCTGTSSDVGGYNSVSWYRQHPGKAPKLMIYDVTNRPSGVSNRFSGSKSGNTASLTISGLQAEDEADYYCSSSSISATWVFGGGTKLTVL
notes: His-tagged
With B2, in test [1], the Kd was 66.9 nM. The cell binding in test [2] is 34300; in test [3] it was 87500; in test [4], 601000. The strep/HRP in test [5] came to 1.38. Further, the “anti His/HRP” value in test [6] was found to be 1.97.

B3: 39-TC6-IV-B08 (scFv)
scFv: QVQLVESGGGVVQPGGSLRLSCAASGFTFSSYAMHWVRQAPGKGLEWVAVISYDGSNKYYADSVKGRFTISRDNSKNTLYLQMNSLRAEDTAVYYCARDGHPYYYGMDVWGQGTTVTVSSGGSGGSGGSGGSQSALTQPASVSGSPGQSITISCTGTSSDVGDYNYVSWYQHHPGKAPKLMIYDVSNRPSGVSNRFSGSKSGNTASLTISGLQAEDEADYYCGSYTGSDTWVFGGGTKVTVL
notes: His-tagged; also called 1885
For the molecule B3, in test [1], the Kd was 2890 nM. The cell binding in test [2] was 35900; in test [3], 25300; in test [4] it was 52200. Further, the strep/HRP in test [5] worked out at 0.268. In addition, the “anti His/HRP” value in test [6] came to 2.97.

B4: 60-TC7-VII-C02 (scFv)
scFv: QVQLQQWGAGLLKPSETLSLTCAVYGGSFSGYYWSWIRQPPGKGLEWIGEINHSGSTNYNPSLKSRVTISVDTSKNQFSLKLSSVTAADTAVYYCARSPLWFGPPDAFDIWGQGTMVTVSSGGSGGSGGSGGSQSALTQPPSASGSPGQSVSISCTGTSSDVGGYNYVSWYQQHPGKAPKLIIYDVDKRPSGIPERFSGSNSGNTATLTISGTQAMDEADYYCQAWDSSTEVVFGGGTKVTVL
notes: His-tagged
For the molecule B4, the Kd in test [1] came to 135 nM. Further, the cell binding in test [2] was 5040; in test [3], 10800; in test [4] it was 458000. Moreover, in test [5], the strep/HRP was 1.58. The “anti His/HRP” value in test [6] is 1.27.

B5: 50-TC7-III-A11 (scFv)
scFv: QVQLVQSGAEVKRPGASVKVSCKASGYTFTSYYMHWVRQAPGQGLEWMGIINPSGGSTSYAQKFQGRVTMTRDTSTSTVYMELSSLRSEDTAVYYCAIEPGYCSGGSCYPDAFDIWGQGTTVTVSSGGSGGSGGSGGSQSVLTQPPSASGTPGQRVTISCSGSSSNIGSDYVYWYQRVPGTAPKLLIYRDNQRPSGVPDRFSGSKSGTSASLAISGLRSDDEADYYCAAWDDSLSGWVFGGGTKVTVL
notes: His-tagged; also called 1985
For the molecule B5, in test [1], the Kd turned out to be 4190 nM. In addition, the cell binding came to 45000 in test [2], 12200 in test [3] and 122000 in test [4]. The strep/HRP in test [5] was found to be 0.868. For the same molecule, in test [6], the “anti His/HRP” value is 2.25.

B6: 16-TC4-I-C11 (scFv)
scFv: QVQLVQSGAEVKKPGSSVKVSCKASGGTFSSYAISWVRQAPGQGLEWMGWISAYNGNTNYAQKLQGRVTMTTDTSTSTAYMELRSLRSDDTAVYYCARVTPPGWLGNMDVWGKGTTVTVSSGGSGGSGGSGGSSYELMQSPSVSVAPGQTARITCGGRDIGSKSVHWYQQKPGQAPVLVVYDDSDRPSGIPERLSGSNFGNEATLTISRVEAGDEGDYFCQVWDSSTDVVFGGGTKVTVL
notes: His-tagged
For the molecule B6, in test [1], the Kd was 40.2 nM. The cell binding in test [2] amounted to 51000; in test [3] it was 103000; in test [4], 660000. Moreover, the strep/HRP in test [5] came out at 1.43. Further, the “anti His/HRP” value in test [6] turned out to be 2.1.

B7: 53-TC7-VI-B06 (scFv)
scFv: EVQLLESGGGVVQPGRSLRLSCAASGFTFSSYGMHWVRQAPGKGLEWVAVISYDGSNKYYADSVKGRFTISRDNSKNTLYLQMNSLRAEDTAVYYCAKGELELTNWGQGTLVTVSSGGSGGSGGSGGSSYELTQPPSVSVAPGQTARITCGGNNIGSKSVHWYQQKSGQAPVLVVYDDTDRPSGTPERFSGSNSGNTATLTISGTQAMDEADYYCQAWDSSTAVFGTGTKVTVL
notes: His-tagged
In the case of B7, the Kd in test [1] came out at 235 nM. Moreover, the cell binding in test [2] was 1170; in test [3], 1830; in test [4] it was 12200. The strep/HRP in test [5] came to 1.44. Also, the “anti His/HRP” value in test [6] amounted to 1.38.

B8: 4-TC4-I-G08 (scFv)
scFv: QVQLVQSGGGVVQPGRSLRLSCAASGFTFSSYAMHWVRQAPGKGLEWVAVISYDGSNKYYADSVKGRFTISRDNAKNSLYLQMNSLRDEDTAVYYCARDESFDYGVDVWGKGTTVTVSSGGSGGSGGSGGSSSELTQDPAVSVALGQTVRITCQGDSLRSYYASWYQQKPGQAPVLVIYGKNNRPSGIPDRFSGSSSGNTASLTITGAQAEDEADYYCNSRDSSGNHLVVFGGGTKLTVL
notes: His-tagged
In the case of B8, the Kd in test [1] stood at 1410 nM. For the same molecule, the cell binding in test [2] turned out to be 23500; in test [3] it was 34000; in test [4] it was 387000. Further, in test [5], the strep/HRP came out at 1.03. The “anti His/HRP” value in test [6] was 2.29.

B9: 42-TC4-VII-G08 (scFv)
scFv: QVQLVQSGGGVVQPGRSLRLSCAASGFTFSSYAMHWVRQAPGKGLEWVAVISYDGSNKYYADSVKGRFTISRDNSKNTLYLQMNSLRAEDTAVYYCARDLSYDYGFDYWGQGTLVTVSSGGSGGSGGSGGSSSELTQDPAVSVALGQTVRITCQGDSLRSYYASWYQQKPGQAPVLVIYGKNNRPSGIPDRFSGSSSGNTASLTITGAQAEDEADYYCNSRDSSGNHLVVFGGGTKVTVL
notes: His-tagged
In the case of B9, the Kd in test [1] came to 179 nM. Further, the cell binding in test [2] was 13100; in test [3] it was 33900; in test [4], 364000. The strep/HRP in test [5] is 1.11. Besides, in test [6], the “anti His/HRP” value amounted to 2.34.

B10: 49-TC4-XVI-F01 (scFv)
scFv: QVQLVESGGGVVQPGRSLRLSCAASGFTFSSYAMHWVRQAPGKGLEWVAVISYDGSNKYYADSVKGRFTISRDNSKNTLYLQMNSLRAEDTAVYYCARDSTQDYGMDVWGQGTMVTVSSGGSGGSGGSGGSSSELTQDPAVSVALGQTVRITCQGDSLRNYYASWYQQKPGQAPVLVFYGKNNRPSGIPDRFSGSSSGNTASLTITGAQAEDEADYYCNSRDSSGNHLVVFGGGTKLTVL
notes: His-tagged
For the molecule B10, in test [1], the Kd was determined as 1060 nM. Besides, the cell binding is 2980 in test [2], 5410 in test [3] and 134000 in test [4]. The strep/HRP in test [5] is 1.29. Also, in test [6], the “anti His/HRP” value came to 2.12.

B11: 37-TC7-VII-D05 (scFv)
scFv: QMQLVQSGGGVVQPGRSLRLSCAASGFTFSSYAMHWVRQAPGKGLEWVAVISYDGSNKYYADSVKGRFTISRDNSKNTLYLQMNSLRAEDTAVYYCARDALWDTATFDYWGQGTLVTVSSGGSGGSGGSGGSSSELTQDPAVSVALGQTVRITCQGDSLRSYYASWYQQKPGQAPVLVIYGKNNRPSGIPDRFSGSSSGNTASLTITGAQAEDEADYYCNSRDSSGNPWVFGGGTKLTVL
notes: His-tagged
Turning to B11, in test [1], the Kd is 5640 nM. The cell binding in test [2] is 15900; in test [3], 11000; in test [4], 111000. In addition, in test [5], the strep/HRP is 0.655. Besides, the “anti His/HRP” value in test [6] was determined as 2.28.
